Experimental data reported in patent US20260167699A1 (Chugai, published 2026).

T1: FcγRIIa(H) extracellular domain, C-terminal His tag (human, UniProt P12318 34-217)
T1 construct: extracellular domain; also called 2aH
T1 sequence: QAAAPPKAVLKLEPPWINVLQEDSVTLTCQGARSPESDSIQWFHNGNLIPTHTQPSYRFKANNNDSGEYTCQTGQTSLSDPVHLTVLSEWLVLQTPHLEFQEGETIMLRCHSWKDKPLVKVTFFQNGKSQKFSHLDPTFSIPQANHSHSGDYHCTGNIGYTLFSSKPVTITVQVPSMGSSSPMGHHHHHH

T2: FcγRIIb extracellular domain, C-terminal His tag (human, UniProt P31994 43-217)
T2 construct: extracellular domain; also called 2b
T2 sequence: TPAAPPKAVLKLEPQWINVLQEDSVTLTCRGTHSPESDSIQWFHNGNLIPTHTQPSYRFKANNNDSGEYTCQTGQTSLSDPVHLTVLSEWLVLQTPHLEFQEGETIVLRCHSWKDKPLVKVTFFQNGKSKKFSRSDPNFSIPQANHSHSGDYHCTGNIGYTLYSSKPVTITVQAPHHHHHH

T3: FcγRIIa(R) extracellular domain, C-terminal His tag (human, UniProt P12318 34-217)
T3 construct: extracellular domain; also called 2aR
T3 sequence: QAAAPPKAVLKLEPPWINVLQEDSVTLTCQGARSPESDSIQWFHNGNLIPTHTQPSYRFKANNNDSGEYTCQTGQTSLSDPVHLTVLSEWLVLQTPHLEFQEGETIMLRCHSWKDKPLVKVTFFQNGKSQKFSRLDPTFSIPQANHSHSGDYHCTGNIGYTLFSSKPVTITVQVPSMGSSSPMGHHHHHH

T4: FcγRIIa(R) extracellular domain, C-terminal His tag (human, UniProt P12318 34-217)
T4 construct: extracellular domain; Allotype R131; also called 2aR
T4 sequence: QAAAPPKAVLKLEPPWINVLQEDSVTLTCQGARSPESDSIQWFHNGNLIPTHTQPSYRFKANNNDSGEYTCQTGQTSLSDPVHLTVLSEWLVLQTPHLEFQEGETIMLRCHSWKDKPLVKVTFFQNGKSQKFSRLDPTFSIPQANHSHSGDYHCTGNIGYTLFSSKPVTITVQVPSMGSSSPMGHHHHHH

T5: FcγRIIb extracellular domain, C-terminal His tag (human, UniProt P31994 43-217)
T5 construct: extracellular domain; also called 2b
T5 sequence: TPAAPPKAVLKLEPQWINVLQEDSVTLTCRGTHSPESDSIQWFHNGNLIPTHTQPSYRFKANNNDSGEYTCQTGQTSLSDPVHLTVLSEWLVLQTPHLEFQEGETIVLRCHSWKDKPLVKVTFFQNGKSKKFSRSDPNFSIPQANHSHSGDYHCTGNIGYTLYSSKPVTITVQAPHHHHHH

T6: FcγRIIa(H) extracellular domain, C-terminal His tag (human, UniProt P12318 34-217)
T6 construct: extracellular domain; Allotype H131; also called 2aH
T6 sequence: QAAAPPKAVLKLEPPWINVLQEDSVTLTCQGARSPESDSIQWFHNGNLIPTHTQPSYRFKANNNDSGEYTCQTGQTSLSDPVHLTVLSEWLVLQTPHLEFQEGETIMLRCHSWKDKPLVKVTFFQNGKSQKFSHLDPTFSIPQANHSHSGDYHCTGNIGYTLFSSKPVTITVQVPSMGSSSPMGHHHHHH


Key:
[1] = molecular target: T1, FcγRIIa(H) extracellular domain, …; assay: SPR; He Ab vs HeCon Ab (GpH7-A5/GpH7-B3/GpL16-k0)=100;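 also: surface plasmon resonance at 25 °C with the test antibody captured on a sensor chip via antigenic peptide, protein L or protein A/G and FcγR flowed over as analyte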
Experimental: (§1) The antibody of interest was analyzed for its interaction with FcγR using a BiaCore™ T100, BiaCore™ A100, or BiaCore™ 4000 surface plasmon resonance system (GE Healthcare Japan Corp.). The running buffer used was HBS-EP+ (GE Healthcare Japan Corp.). The assay temperature was set to 25° C. The sensor chips used were: a chip prepared by immobilizing antigenic peptides onto Series S Sensor Chip CM5 (GE Healthcare Japan Corp.) by the amine coupling method; a chip prepared by immobilizing antigenic peptides biotinylated in advance onto Series S Sensor Chip SA (certified) (GE Healthcare Japan Corp.) through their interaction; a chip prepared by immobilizing protein L (ACTIGEN, BioVision, Inc.) onto Series S Sensor Chip CM5 (GE Healthcare Japan Corp.); and a chip prepared by immobilizing protein A/G (Thermo Fisher Scientific K.K.) onto Series S Sensor Chip CM5 (GE Healthcare Japan Corp.). The antibody of interest was captured onto any of these chips and allowed to interact with FcγR diluted with a running buffer. The antibody captured on the chip was washed off through the reaction of 10 mM glycine-HCl (pH 1.5) to regenerate the chip, which was repetitively used.

[2] = molecular target: T7, FcγRIa extracellular domain, C-terminal His tag (human, UniProt P12314 16-292); assay: as above
T7 construct: extracellular domain; also called 1a
T7 sequence (P12314 other isoform, or with tags, fused parts or gaps): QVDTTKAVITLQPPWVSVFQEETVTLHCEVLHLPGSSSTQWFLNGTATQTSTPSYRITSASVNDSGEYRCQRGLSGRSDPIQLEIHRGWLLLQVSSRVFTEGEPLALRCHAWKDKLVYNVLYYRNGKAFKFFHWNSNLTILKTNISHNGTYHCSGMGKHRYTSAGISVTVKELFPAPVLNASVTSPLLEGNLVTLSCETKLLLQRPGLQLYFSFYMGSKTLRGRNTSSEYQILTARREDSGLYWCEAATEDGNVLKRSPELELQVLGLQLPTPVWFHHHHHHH
Experimental: as §1

[3] = molecular target: T2, FcγRIIb extracellular domain, …; assay: as above
Experimental: as §1

[4] = molecular target: T8, FcγRIIIa extracellular domain, C-terminal His tag (human, UniProt P08637 17-208); assay: as above
T8 construct: extracellular domain; also called 3a
T8 sequence (P08637 other isoform, or with tags, fused parts or gaps): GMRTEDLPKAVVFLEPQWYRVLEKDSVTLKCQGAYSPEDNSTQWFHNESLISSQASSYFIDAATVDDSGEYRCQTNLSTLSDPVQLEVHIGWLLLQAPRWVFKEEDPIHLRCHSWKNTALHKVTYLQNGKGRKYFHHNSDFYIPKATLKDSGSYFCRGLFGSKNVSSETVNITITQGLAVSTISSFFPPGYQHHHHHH
Experimental: as §1

[5] = molecular target: T3, FcγRIIa(R) extracellular domain, …; assay: as above
Experimental: as §1

[6] = molecular target: T4, FcγRIIa(R) extracellular domain, …; assay: SPR (Biacore); binding relative to GpH7-A5/GpH7-B3/GpL16-k0 x100;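 also: antibodies captured on a chip surface, soluble FcγR flowed over in HBS-EP+ running buffer at 25 °C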
Experimental: as §1

[7] = molecular target: T9, FcγRIIIa extracellular domain, C-terminal His tag (human, UniProt P08637 17-208); assay: as above
T9 construct: extracellular domain; also called 3a
T9 sequence (P08637 other isoform, or with tags, fused parts or gaps): as above
Experimental: as §1

[8] = molecular target: T10, FcγRIa extracellular domain, C-terminal His tag (human, UniProt P12314 16-292); assay: as above
T10 construct: extracellular domain; also called 1a
T10 sequence (P12314 other isoform, or with tags, fused parts or gaps): as the sequence (P12314 other isoform, or with tags, fused parts or gaps) above
Experimental: as §1

[9] = molecular target: T5, FcγRIIb extracellular domain, …; assay: as above
Experimental: as §1

[10] = molecular target: T6, FcγRIIa(H) extracellular domain, …; assay: as above
Experimental: as §1

Row | Binder | He/Con 2aH [1] | He/Con 1a [2] | He/Con 2b [3] | He/Con 3a [4] | He/Con 2aR [5] | He/Con 2aR [6] | He/Con 3a [7] | He/Con 1a [8] | He/Con 2b [9] | He/Con 2aH [10]
1 | GpH7-A5/GpH7-B3 variant K326_20W/GpL16-k0 (antibody, human IgG1, kappa, He Ab: anti-glypican 3 IgG1 heterodimer, only the GpH7-B3 chain mutated; position in EU numbering; also called He Ab) heavy 1: not shown heavy 2: not shown light: DIVMTQSPLSLPVTPGEPASISCQASESLVHSNRNTYLHWYLQKPGQSPQLLIYKVSNRFSGVPDRFSGSGSGTDFTLKISRVEAEDVGVYYCSQNTHVPPTFGQGTKVEIERTVAAPSVFIFPPSDEQLKSGTASVVCLLNNFYPREAKVQWKVDNALQSGNSQESVTEQDSKDSTYSLSSTLTLSKADYEKHKVYACEVTHQGLSSPVTKSFNRGEC |  |  |  |  |  | 125% | 93.7% | 108% | 166% | 86.7%
2 | GpH7-A5/GpH7-B3 variant A327_05P/GpL16-k0 (antibody, human IgG1, kappa, He Ab: anti-glypican 3 IgG1 heterodimer, only the GpH7-B3 chain mutated; position in EU numbering; also called He Ab) heavy 1: not shown heavy 2: not shown light: DIVMTQSPLSLPVTPGEPASISCQASESLVHSNRNTYLHWYLQKPGQSPQLLIYKVSNRFSGVPDRFSGSGSGTDFTLKISRVEAEDVGVYYCSQNTHVPPTFGQGTKVEIERTVAAPSVFIFPPSDEQLKSGTASVVCLLNNFYPREAKVQWKVDNALQSGNSQESVTEQDSKDSTYSLSSTLTLSKADYEKHKVYACEVTHQGLSSPVTKSFNRGEC |  |  |  |  |  | 80.6% | 61.9% | 102% | 86.3% | 67.9%

Now from value to binder:

Row | He/Con 2aH [1] | He/Con 1a [2] | He/Con 2b [3] | He/Con 3a [4] | He/Con 2aR [5] | He/Con 2aR [6] | He/Con 3a [7] | He/Con 1a [8] | He/Con 2b [9] | He/Con 2aH [10] | Binder
3 | 120% | 102% | 97.4% | 103% | 90.9% |  |  |  |  |  | GpH7-A5/GpH7-B3 variant Y300_07I/GpL16-k0 (antibody, human IgG1, kappa, heterodimerized IgG1, one H chain mutated; also called He Ab; copies: 1 + 1 + 2) heavy 1: not shown heavy 2: not shown light: DIVMTQSPLSLPVTPGEPASISCQASESLVHSNRNTYLHWYLQKPGQSPQLLIYKVSNRFSGVPDRFSGSGSGTDFTLKISRVEAEDVGVYYCSQNTHVPPTFGQGTKVEIERTVAAPSVFIFPPSDEQLKSGTASVVCLLNNFYPREAKVQWKVDNALQSGNSQESVTEQDSKDSTYSLSSTLTLSKADYEKHKVYACEVTHQGLSSPVTKSFNRGEC
4 | 108% | 108% | 175% | 113% | 127% |  |  |  |  |  | GpH7-A5/GpH7-B3 variant Y300_10E/GpL16-k0 (antibody, human IgG1, kappa, heterodimerized IgG1, one H chain mutated; also called He Ab; copies: 1 + 1 + 2) heavy 1: not shown heavy 2: not shown light: DIVMTQSPLSLPVTPGEPASISCQASESLVHSNRNTYLHWYLQKPGQSPQLLIYKVSNRFSGVPDRFSGSGSGTDFTLKISRVEAEDVGVYYCSQNTHVPPTFGQGTKVEIERTVAAPSVFIFPPSDEQLKSGTASVVCLLNNFYPREAKVQWKVDNALQSGNSQESVTEQDSKDSTYSLSSTLTLSKADYEKHKVYACEVTHQGLSSPVTKSFNRGEC
5 | 120% | 107% | 96.1% | 114% | 96.9% |  |  |  |  |  | GpH7-A5/GpH7-B3 variant Y300_08L/GpL16-k0 (antibody, human IgG1, kappa, heterodimerized IgG1, one H chain mutated; also called He Ab; copies: 1 + 1 + 2) heavy 1: not shown heavy 2: not shown light: DIVMTQSPLSLPVTPGEPASISCQASESLVHSNRNTYLHWYLQKPGQSPQLLIYKVSNRFSGVPDRFSGSGSGTDFTLKISRVEAEDVGVYYCSQNTHVPPTFGQGTKVEIERTVAAPSVFIFPPSDEQLKSGTASVVCLLNNFYPREAKVQWKVDNALQSGNSQESVTEQDSKDSTYSLSSTLTLSKADYEKHKVYACEVTHQGLSSPVTKSFNRGEC
6 | 97.8% | 105% | 70.4% | 80.3% | 72.4% |  |  |  |  |  | GpH7-A5/GpH7-B3 variant Y300_13S/GpL16-k0 (antibody, human IgG1, kappa, heterodimerized IgG1, one H chain mutated; also called He Ab; copies: 1 + 1 + 2) heavy 1: not shown heavy 2: not shown light: DIVMTQSPLSLPVTPGEPASISCQASESLVHSNRNTYLHWYLQKPGQSPQLLIYKVSNRFSGVPDRFSGSGSGTDFTLKISRVEAEDVGVYYCSQNTHVPPTFGQGTKVEIERTVAAPSVFIFPPSDEQLKSGTASVVCLLNNFYPREAKVQWKVDNALQSGNSQESVTEQDSKDSTYSLSSTLTLSKADYEKHKVYACEVTHQGLSSPVTKSFNRGEC
